Assay results taken from patent publication US7425614B2, “Neuroprotective therapeutics preventing ERK/MAPK activation through the NMDA receptor” (Children's Medical Center Corporation, priority 2003, dated 2008).

Experiments:
[1] = system: NR2B; assay: immunocytochemistry of NR2B and PSD-95 clusters in cultured neurons; type: cell-based, rat
Description: Coverslips with cultured neurons were fixed with 4% paraformaldehyde, permeabilized with 0.3% Triton X-100, and blocked in 10% goat serum in PBS. A rabbit polyclonal antibody against the N terminus of the NR2B subunit of the NMDA receptor (AB1557P, Chemicon, Temecula, Calif.) was used for detection in neurons expressing GFP and RasGRF1-BD. These antibodies could not be used for study of the NR2B subunit distribution in neurons expressing NR2B-BD since they recognized the expressed construct. The distribution of NR2A/B subunit was determined using polyclonal antibody AB 1548 (Chemicon). A mouse monoclonal antibody (clone K 28/43, Upstate, Waltham, Mass.) was used to detect PSD-95. Secondary antibodies were the same as that used for detection of ERK and MAP2. To quantify the distribution of clusters in transfected cells, we first focused on dendrites of neurons expressing the EGFP fluorescent construct. Thereafter, fluorescent images of GFP, NR2B, and PSD-95 were acquired confocally (60×; NA 1.4 objective, zoom 5). Cluster density and brightness were analyzed with the MetaMorph Imaging System (Universal Imaging, Westchester, Pa.). Ten neurons were analyzed from each experiment (3-4 dendritic regions for each neuron).

[2] = system: NMDA receptor; assay: whole-cell recordings of NMDAR-mediated currents in cultured hippocampal neurons; type: cell-based, rat
[3] = target: T1, RasGRF1 (Mus musculus, UniProt P27671); assay: pull-down / in vitro binding of NR2B fragments with in vitro translated RasGRF1
T1 construct: In vitro translated full-length RasGRF1 and AU1-tagged NR2B fragments were coimmunopecipitated with AU1 antibody; made in house; host or cells: cell-free in vitro translation (TNT system, [35S]methionine)
T1 sequence (P27671 1-1262): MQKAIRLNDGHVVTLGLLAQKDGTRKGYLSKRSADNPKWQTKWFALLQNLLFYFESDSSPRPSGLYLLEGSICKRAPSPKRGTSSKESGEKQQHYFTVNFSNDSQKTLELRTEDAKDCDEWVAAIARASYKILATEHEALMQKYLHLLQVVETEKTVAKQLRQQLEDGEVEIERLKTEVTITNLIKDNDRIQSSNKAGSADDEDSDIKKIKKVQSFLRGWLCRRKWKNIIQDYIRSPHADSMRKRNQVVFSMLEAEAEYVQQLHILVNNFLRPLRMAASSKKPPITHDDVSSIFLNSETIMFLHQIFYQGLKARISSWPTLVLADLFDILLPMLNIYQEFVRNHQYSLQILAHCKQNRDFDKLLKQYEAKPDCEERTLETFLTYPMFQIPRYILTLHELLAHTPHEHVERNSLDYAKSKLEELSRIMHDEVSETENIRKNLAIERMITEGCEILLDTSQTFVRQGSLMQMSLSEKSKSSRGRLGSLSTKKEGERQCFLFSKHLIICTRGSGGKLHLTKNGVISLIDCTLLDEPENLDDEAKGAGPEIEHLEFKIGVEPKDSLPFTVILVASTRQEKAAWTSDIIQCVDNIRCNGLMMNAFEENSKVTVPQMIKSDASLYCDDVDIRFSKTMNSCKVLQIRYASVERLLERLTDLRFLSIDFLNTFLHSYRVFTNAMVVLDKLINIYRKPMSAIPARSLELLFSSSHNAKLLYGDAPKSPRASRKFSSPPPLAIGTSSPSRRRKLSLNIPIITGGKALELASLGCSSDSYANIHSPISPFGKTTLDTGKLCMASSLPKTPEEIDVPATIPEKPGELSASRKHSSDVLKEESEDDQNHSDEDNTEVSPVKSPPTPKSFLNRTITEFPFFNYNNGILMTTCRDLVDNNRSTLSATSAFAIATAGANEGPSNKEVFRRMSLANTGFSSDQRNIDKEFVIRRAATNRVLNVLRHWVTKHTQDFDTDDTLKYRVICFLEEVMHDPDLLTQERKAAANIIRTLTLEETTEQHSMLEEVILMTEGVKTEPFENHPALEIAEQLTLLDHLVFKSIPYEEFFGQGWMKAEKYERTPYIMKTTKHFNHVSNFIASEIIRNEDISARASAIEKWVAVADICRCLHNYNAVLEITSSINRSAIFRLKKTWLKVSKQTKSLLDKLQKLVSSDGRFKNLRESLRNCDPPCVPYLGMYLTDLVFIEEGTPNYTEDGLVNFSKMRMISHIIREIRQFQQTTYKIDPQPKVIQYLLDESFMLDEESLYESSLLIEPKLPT
Description: For in vitro translation, fragments of rat NR2B and rat RasGRF1 were made by PCR with 5′-primers containing AU1- and HA-tag encoding sequences; amplified sequences were subcloned into pcDNA3.1. For 293T transfection, the following cDNAs were used: mouse RasGRF1 in pcDNA3, GFP-rat NR2B, GFP rat NR2A in pcDNA1.1, and rat NR1 in pEGFP-C1 (Clontech). EGFP fusion constructs were made by subcloning cDNA fragments encoding different portions of NR2B and RasGRF1 into pEGFP-C1 (Clontech). EGFP fusion constructs were transferred from pEGFP into pSinRep5 and used for preparation of the Sindbis pseudovirus gene transfer system according to the manufacturer's protocol (Invitrogen, Carlsbad, Calif.).
Mouse RasGRF1 in pcDNA3 (Martegani, E., et al. (1992) EMBO J. 11, 2151-2157) was translated in vitro using the TNT system (Invitrogen) and [^35S]methionine. […]
For in vitro binding experiments, equimolar amounts of in vitro translated ^35S-labeled proteins (calculated from radioactivity of the excised protein band and cysteine content in the specific fragment) were incubated with a 3-fold molar excess of translated RasGRF1 for 30 min at 30° C., diluted with RIPA buffer, and immunoprecipitated with anti-HA-agarose (Santa Cruz). […]

B1: NR2B-BD: peptide of amino acids 886-1310 of the NR2B C-terminal domain that binds RasGRF1; used as NusA or EGFP fusion (protein)
chain: SPTATMNNTHSNILRLLRTAKNMANLSGVNGSPQSALDFIRRESSVYDISEHRRSFTHSDCKSYNNPPCEENLFSDYISEVERTFGNLQLKDSNVYQDHYHHHHRPHSIGSTSSIDGLYDCDNPPFTTQPRSISKKPLDIGLPSSKHSQLSDLYGKFSFKSDRYSGHDDLIRSDVSDISTHTVTYGNIEGNAAKRRKQQYKDSLKKRPASAKSRREFDEIELAYRRRPPRSPDHKRYFRDKEGLRDFYLDQFRTKENSPHWEHVDLTDIYKERSDDFKRDSVSGGGPCTNRSHLKHGTGEKHGVVGGVPAPWEKNLTNVDWEDRSGGNFCRSCPSKLHNYSSTVAGQNSGRQACIRCEACKKAGNLYDISKDNSLQELDQPAAPVAVTSNASSTKYPQSPTNSKAQKKNRNKLRRQHSYDTFVDL
modifications: left off: small tags and cut ends
notes: used as NusA or EGFP fusion
average number NR2B-positive clusters ([1]; compared to cells expressing GFP alone): did not reveal any changes
localization or density of NR2B or PSD-95 ([1]; cultured neurons expressing blocking peptides): did not change
average amplitude of the whole-cell current induced by bath application of NMDA ([2]; 100 μM NMDA, neurons expressing BD fusion constructs): did not affect
proportion of ifenprodil-sensitive (NR2B) current stimulated by NMDA bath application ([2]; cultured neurons, 3 μM ifenprodil): neither RasGRF1-BD nor NR2B-BD expression changed
mean amplitude and kinetics of the spontaneous NMDAR-mediated excitatory postsynaptic currents ([2]; neurons expressing BD fusion constructs): did not affect
binding to RasGRF1 in vitro [3]: bound
